For one assay, the target named is HLA-B*15:01. Kind of assay: IEDB peptide-MHC binding, purified MHC/competitive/fluorescence; filed as Kd, often an IC50 or EC50 that approximates it; ≥ and ≤ were set here for values at or beyond the usual limits of such assays. Conditions: source organism: Homo sapiens.
Assay [1] has as its target HLA-B*51:01. Described as above. To be noted: source organism: Homo sapiens.
The target of another assay is HLA-A*69:01. Described as above. To be noted: source organism: Homo sapiens.
In another assay the target is HLA-A*26:01. The assay is described as above. Conditions: source organism: Homo sapiens.
The target of assay [2] is HLA-B*51:01. In words: IEDB peptide-MHC binding, purified MHC/competitive/radioactivity; filed as Kd, often an IC50 or EC50 that approximates it; ≥ and ≤ were set here for values at or beyond the usual limits of such assays.
For another assay, the target named is HLA-B*53:01. The description is as above.
For the next assay, the target named is HLA-B*35:01. The description is as above.
A further assay addresses HLA-B*07:02. Described as above.
For a further assay, the target named is HLA-B*54:01. Described as above.
For another assay, the target named is HLA-A*11:01. The description is as above.
The target of a further assay is HLA-A*02:02. The description is as above.
A further assay addresses HLA-A*31:01. The description is as above.
A further assay concerns the target HLA-A*02:03. Described as above.
Another assay addresses HLA-A*68:02. Described as above.
The target of the next assay is HLA-A*02:06. The description is as above.
Another assay addresses HLA-A*03:01. Described as above.
The target of a further assay is HLA-A*68:01. The assay is described as above.
Another assay deals with HLA-A*02:01. The assay is described as above.
Another assay deals with HLA-A*33:01. The description is as above.
Setting [3] is: source organism: Mammarenavirus guanaritoense.
Where [4] appears, read: source organism: Triticum aestivum.
Setting [5] is: source organism: Vaccinia virus WR.
Setting [6] is: source organism: SARS coronavirus Tor2.
Setting [7] is: source organism: Vaccinia virus Copenhagen.
Where [8] appears, read: source organism: Trypanosoma cruzi.

This is an account of results in the Immune Epitope Database (IEDB).

One may read the Kd as the constant that tells how readily two partners part at equilibrium. LVKSAWLSL: the dissociation constant Kd with HLA-B*15:01, in the assay with HLA-B*51:01 [1], with HLA-A*69:01 and with HLA-A*26:01 was no less than 20 µM in each case.
In the case of CPMCCSKIL, the Kd in the assay with HLA-B*51:01 [2] (setting [3]) came to 182 nM; in the assay with HLA-B*53:01 (setting [3]) it was 62.9 nM; with HLA-B*35:01 (setting [3]) it was 18 nM; with HLA-B*07:02 (setting [3]), 21.7 nM; with HLA-B*54:01 (setting [3]), 0.155 µM.
IPEQSRCQAI: the Kd with HLA-B*51:01 [2] (setting [4]) was 246 nM; in the assay with HLA-B*53:01 (setting [4]), 519 nM; with HLA-B*35:01 (setting [4]), 519 nM; with HLA-B*07:02 (setting [4]), 14.6 nM; with HLA-B*54:01 (setting [4]), no less than 32.4 µM.
TFFSYLMKDK: the equilibrium dissociation constant (Kd) with HLA-A*11:01 (setting [5]) was 0.0128 µM; with HLA-B*51:01 [2] (setting [5]), no less than 69600 nM; with HLA-A*02:02 (setting [5]) it was no less than 50300 nM; in the assay with HLA-A*31:01 (setting [5]) it was 560 nM; with HLA-A*02:03 (setting [5]), no less than 70400 nM; in the assay with HLA-B*53:01 (setting [5]), no less than 24200 nM. Besides, the Kd in the assay with HLA-A*68:02 (setting [5]) is no less than 69.8 µM; with HLA-A*02:06 (setting [5]), no less than 69.8 µM; in the assay with HLA-B*35:01 (setting [5]) it was no less than 69900 nM; with HLA-A*03:01 (setting [5]) it was 1600 nM; with HLA-A*68:01 (setting [5]), 95.9 nM; with HLA-A*02:01 (setting [5]) it was no less than 69400 nM. For the same sequence, the Kd with HLA-B*07:02 (setting [5]) is 16200 nM; in the assay with HLA-A*33:01 (setting [5]), 2.69 µM; with HLA-B*54:01 (setting [5]), no less than 69.9 µM.
With LTVILGVLL, the dissociation constant Kd with HLA-A*02:01 (source organism: Homo sapiens) worked out at 2630 nM.
As for KPAMSTYSDI, the Kd with HLA-B*51:01 [2] (setting [5]) is 14000 nM; with HLA-B*53:01 (setting [5]) it was 8830 nM; with HLA-B*35:01 (setting [5]) it was no less than 63700 nM; with HLA-B*07:02 (setting [5]), 161 nM; in the assay with HLA-B*54:01 (setting [5]) it was 9.87 µM.
On to QPYLQLQPF, for which the Kd with HLA-B*51:01 [2] (setting [4]) came to 101 nM; with HLA-B*53:01 (setting [4]) it was 478 nM; with HLA-B*35:01 (setting [4]), 6.19 nM; with HLA-B*07:02 (setting [4]), 149 nM; with HLA-B*54:01 (setting [4]), 11 µM.
Take NPIQLSSYSL: the Kd with HLA-B*51:01 [2] (setting [6]) is 246 nM; with HLA-B*53:01 (setting [6]), 531 nM; in the assay with HLA-B*35:01 (setting [6]), 395 nM; with HLA-B*07:02 (setting [6]) it was 416 nM; with HLA-B*54:01 (setting [6]), 1.77 µM.
Turning to FILGIIITV, the Kd is 19.6 µM in the assay with HLA-A*11:01 (setting [7]); no less than 68400 nM in the assay with HLA-B*51:01 [2] (setting [7]); 1170 nM with HLA-A*31:01 (setting [7]); 5540 nM with HLA-B*53:01 (setting [7]); no less than 39600 nM with HLA-B*35:01 (setting [7]); 1500 nM in the assay with HLA-A*03:01 (setting [7]). Besides, the equilibrium dissociation constant (Kd) with HLA-A*68:01 (setting [7]) is 3210 nM; in the assay with HLA-B*07:02 (setting [7]) it was no less than 32700 nM; with HLA-A*33:01 (setting [7]), 4.51 µM; in the assay with HLA-B*54:01 (setting [7]), 3.34 µM.
For the sequence LTDLGLIYTA, in the assay with HLA-A*02:01 (source organism: Lassa virus GA391), the Kd is 893 nM.
As for SLHVGTQCA, in the assay with HLA-A*02:01 (source organism: Homo sapiens), the Kd is 1440 nM.
Consider GLLPLFLLLG, for which the Kd with HLA-A*02:02 (setting [8]) stood at 29.1 nM; with HLA-A*02:03 (setting [8]) it was 138 nM; in the assay with HLA-A*68:02 (setting [8]) it was 7.59 µM; with HLA-A*02:06 (setting [8]) it was 0.0183 µM; with HLA-A*02:01 (setting [8]) it was 0.154 nM.
On to FLPSDFFPSA, for which the Kd with HLA-A*02:01 (source organism: Hepatitis B virus) worked out at 23 nM.
In the case of ELRSKREQEV, the Kd with HLA-A*68:02 (source organism: Homo sapiens) is 2.53 µM; with HLA-A*02:06 (source organism: Homo sapiens), no less than 72.5 µM; with HLA-A*02:01 (source organism: Homo sapiens), 18800 nM.
LVVDFSQFSR: in the assay with HLA-A*02:01 (source organism: Hepatitis B virus subtype adw2), the dissociation constant Kd is no less than 35000 nM.
Take KPKPAVRYAI: the Kd was no less than 69600 nM with HLA-B*51:01 [2] (source organism: Variola virus); no less than 69900 nM in the assay with HLA-B*53:01 (source organism: Variola virus); no less than 69900 nM with HLA-B*35:01 (source organism: Variola virus); 4.72 nM with HLA-B*07:02 (source organism: Variola virus); 12.5 µM with HLA-B*54:01 (source organism: Variola virus).
With SPGEIKPKF, the dissociation constant (Kd) with HLA-B*51:01 [2] (setting [5]) is no less than 70200 nM; with HLA-B*53:01 (setting [5]), 174 nM; with HLA-B*35:01 (setting [5]), 8550 nM; in the assay with HLA-B*07:02 (setting [5]) it was 79.7 nM; with HLA-B*54:01 (setting [5]), no less than 51.1 µM.
